Laboratory results from patent US20240052042A1 (Novartis, published 2024).

T1: human NPR3 (counter target) (human, UniProt P17342 27-481, limits assumed)
T1 construct: Pannings used hNPR3-hFc; also called hNPR3; hNPR3-hFc
T1 sequence (looked up): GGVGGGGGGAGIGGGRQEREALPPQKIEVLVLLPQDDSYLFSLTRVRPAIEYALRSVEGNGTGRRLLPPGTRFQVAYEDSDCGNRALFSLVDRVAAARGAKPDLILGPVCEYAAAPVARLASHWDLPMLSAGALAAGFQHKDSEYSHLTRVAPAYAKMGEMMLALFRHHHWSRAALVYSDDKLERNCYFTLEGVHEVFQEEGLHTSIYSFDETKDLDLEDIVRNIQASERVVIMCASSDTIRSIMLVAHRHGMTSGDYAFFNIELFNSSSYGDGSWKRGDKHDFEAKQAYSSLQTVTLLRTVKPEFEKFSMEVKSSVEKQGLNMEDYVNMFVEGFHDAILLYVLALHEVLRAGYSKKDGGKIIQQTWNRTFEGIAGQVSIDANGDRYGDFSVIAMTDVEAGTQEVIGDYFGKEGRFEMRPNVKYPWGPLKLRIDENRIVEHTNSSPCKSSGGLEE

T2: human NPR3 in the presence of ANP (human, UniProt P17342 27-481; P01160 124-151, limits assumed)
T2 construct: also called hNPR3 + 100 nM ANP
T2 sequence (looked up): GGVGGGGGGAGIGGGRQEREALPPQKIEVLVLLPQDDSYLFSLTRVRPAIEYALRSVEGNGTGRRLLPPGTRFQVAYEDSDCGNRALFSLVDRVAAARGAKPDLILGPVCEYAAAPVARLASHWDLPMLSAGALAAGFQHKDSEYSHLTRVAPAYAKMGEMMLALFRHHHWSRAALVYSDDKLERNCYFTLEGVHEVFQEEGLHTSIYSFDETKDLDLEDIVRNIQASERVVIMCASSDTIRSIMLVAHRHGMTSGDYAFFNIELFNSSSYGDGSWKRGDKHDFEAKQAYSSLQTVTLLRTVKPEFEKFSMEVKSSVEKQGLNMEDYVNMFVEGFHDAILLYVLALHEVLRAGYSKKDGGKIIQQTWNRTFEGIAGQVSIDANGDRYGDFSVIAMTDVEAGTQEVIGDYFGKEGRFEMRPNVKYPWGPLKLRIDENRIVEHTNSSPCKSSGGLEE
T2 sequence (peptide, looked up): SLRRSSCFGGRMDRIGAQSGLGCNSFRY

T3: human NPR1 on CHO-K1 cells in the presence of ANP (human, UniProt P01160 124-151)
T3 construct: also called hNPR1 CHO K1 + 100 nM ANP
T3 sequence: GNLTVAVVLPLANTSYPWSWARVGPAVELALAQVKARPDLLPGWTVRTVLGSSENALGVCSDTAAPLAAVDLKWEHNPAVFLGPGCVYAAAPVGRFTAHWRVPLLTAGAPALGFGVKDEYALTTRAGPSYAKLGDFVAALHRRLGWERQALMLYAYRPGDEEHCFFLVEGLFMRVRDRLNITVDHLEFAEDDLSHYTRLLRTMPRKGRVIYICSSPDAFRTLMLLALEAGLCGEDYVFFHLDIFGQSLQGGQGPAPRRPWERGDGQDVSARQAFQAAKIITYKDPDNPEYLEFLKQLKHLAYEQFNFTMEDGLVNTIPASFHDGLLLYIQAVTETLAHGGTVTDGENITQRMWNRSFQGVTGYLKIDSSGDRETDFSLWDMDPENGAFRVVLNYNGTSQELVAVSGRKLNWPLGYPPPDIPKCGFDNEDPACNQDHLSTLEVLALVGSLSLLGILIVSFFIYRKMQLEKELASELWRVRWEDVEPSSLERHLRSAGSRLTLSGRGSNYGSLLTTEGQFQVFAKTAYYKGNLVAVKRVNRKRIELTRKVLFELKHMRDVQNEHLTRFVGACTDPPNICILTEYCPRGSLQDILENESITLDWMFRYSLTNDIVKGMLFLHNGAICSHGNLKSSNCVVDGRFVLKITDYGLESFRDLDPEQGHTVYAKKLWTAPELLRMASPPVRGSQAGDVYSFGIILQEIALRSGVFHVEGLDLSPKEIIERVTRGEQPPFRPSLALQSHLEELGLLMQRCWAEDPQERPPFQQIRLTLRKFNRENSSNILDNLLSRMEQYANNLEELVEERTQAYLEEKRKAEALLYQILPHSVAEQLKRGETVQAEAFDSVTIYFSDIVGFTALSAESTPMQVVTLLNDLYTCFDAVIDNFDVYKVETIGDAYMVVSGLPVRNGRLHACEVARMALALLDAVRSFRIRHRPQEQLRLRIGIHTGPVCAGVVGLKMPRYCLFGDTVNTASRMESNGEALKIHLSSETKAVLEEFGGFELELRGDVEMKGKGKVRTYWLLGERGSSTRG
T3 sequence (peptide): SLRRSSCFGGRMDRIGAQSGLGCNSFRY

T4: hNPR1-ANP complex (human, UniProt P01160 124-151, limits assumed)
T4 construct: hNPR1 antigen in the presence of ANP; also called hNPR1 + 100 nM ANP
T4 sequence: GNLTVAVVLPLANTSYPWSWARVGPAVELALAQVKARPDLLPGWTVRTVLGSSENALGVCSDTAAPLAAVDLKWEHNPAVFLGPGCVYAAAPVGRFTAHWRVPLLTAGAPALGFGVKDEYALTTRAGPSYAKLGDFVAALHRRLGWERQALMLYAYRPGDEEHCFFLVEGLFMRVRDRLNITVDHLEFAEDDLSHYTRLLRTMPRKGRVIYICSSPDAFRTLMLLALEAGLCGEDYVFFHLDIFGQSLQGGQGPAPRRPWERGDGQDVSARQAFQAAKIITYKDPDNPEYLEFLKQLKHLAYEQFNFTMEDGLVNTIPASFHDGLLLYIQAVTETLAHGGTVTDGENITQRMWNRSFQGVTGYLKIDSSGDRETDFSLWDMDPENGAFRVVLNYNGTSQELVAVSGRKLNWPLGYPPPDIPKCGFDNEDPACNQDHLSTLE
T4 sequence (peptide): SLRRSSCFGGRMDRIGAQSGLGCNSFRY


Assays:
[1] = molecular target: T1, human NPR3 (counter target); experiment: ELISA, IgG titrated on coated antigen, fluorescence [Cont.]
Protocol: Furthermore, the clones were tested via ELISA for binding to the following antigens: human NPR1, constitutively active human NPR1 mutant (W74R), rat NPR1, human NPR3 (counter target), each in the absence and presence of ANP, and BSA. The clones were also analyzed by flow cytometry for binding to human NPR1 expressing CHO K1 cells in absence and presence of ANP (100 nM) and to parental CHO K1 cells.

[2] = molecular target: T2, human NPR3 in the presence of ANP; experiment: ELISA, IgG titrated on coated antigen with ANP (250 fold molar excess), fluorescence [Cont.]
[3] = molecular target: T3, human NPR1 on CHO-K1 cells in the …; experiment: flow cytometry (FL2-H) on hNPR1 CHO-K1 cells with saturating ANP, IgG titrated; control parental CHO-K1 [Cont.), panel XX06]
hNPR1-ANP complex = molecular target: T4, hNPR1-ANP complex; experiment: FRET ANP competition assay, IgG titrated on hNPR1 with Cy5-labeled ANP; negative values mean more ANP signal [Cont.), panel XX06]
Protocol: The same 31 IgGs were tested for ANP competition using a Fluorescence Resonance Energy Transfer (FRET)-based assay in which the NPR1-specific antibodies competed with ANP for binding to NPR1. In this FRET based assay (see FIG. 3), Eu-labeled Streptavidin (for measurement of IgGs) or Eu-labeled anti-hFc antibody (for measurement of FabCys) was used as an energy donor, while Cy5-labeled ANP was used as an acceptor (for all measurements). The resulting fluorescent signal was decreased by ANP-competitive antibodies. The assay was performed as follows: antibodies were mixed with NPR1 and incubated for 5 minutes at room temperature. After addition of the Eu-labeled donor and incubation for 30 minutes at room temperature, the Cy5-ANP solution was added. After a further 60-minute incubation, readout was performed using a TECAN Infinite M1000 Pro using an excitation wavelength of 317 nm and an emission wavelength of 665 nm. Percentage of ANP competition was calculated according to the following formulae: […]

[4] = molecular target: T3, human NPR1 on CHO-K1 cells in the …; experiment: flow cytometry (FL2-H) on hNPR1 CHO-K1 cells with saturating ANP, IgG titrated; control parental CHO-K1 [panel XX04]

Row | binding result [1] | binding result [2] | EC50 (read off the curve) [3] | EC50 (read off the curve) (hNPR1-ANP complex) | EC50 (read off the curve) [4] | Binder
1 | no binding (tested: 200 nM) | no binding (tested: 200 nM) | ~2 nM | ~0.2 nM | – | XX06 (IgG format) (antibody, V domains shown) VH: QVQLLESGGGLVQPGGSLRLSCAASGFTFSSYWMNWVRQAPGKGLEWVSAISSDGSYTYYADSVKGRFTISRDNSKNTLYLQMNSLRAEDTAVYYCARDRYSMIYSYGAGAFDYWGQGTLVTVSS VL: DIQMTQSPSSLSASVGDRVTITCRASQGISSYLAWYQQKPGKAPKLLIYTASTLQSGVPSRFSGSGSGTDFTLTISSLQPEDFATYYCQQTWRKPRTFGQGTKVEIK
2 | – | – | – | – | ~2 nM | XX04 (IgG format) (antibody, V domains shown) VH: QVQLLESGGGLVQPGGSLRLSCAASGFTFSSYWMNWVRQAPGKGLEWVSAISSDGSYTYYADSVKGRFTISRDNSKNTLYLQMNSLRAEDTAVYYCARDRYSMIYSYGAGAFDYWGQGTLVTVSS VL: DIQMTQSPSSLSASVGDRVTITCRASQGISSYLAWYQQKPGKAPKLLIYTASTLQSGVPSRFSGSGSGTDFTLTISSLQPEDFATYYCQQEWVKPRTFGQGTKVEIK
